Biological target: BDBV GP[change] (recombinant GP form that lacks the highly glycosylated mucin-like domains) (Bundibugyo virus (BDBV))
Test: negative-stain single-particle electron microscopy

## BDBV GP[change] (recombinant GP form that lacks the highly glycosylated mucin-like domains) (domain or fragment)
  stoichiometry N: 3
